# Laboratory results published in patent US20100248978.
# Target: T1, p-hydroxyphenylpyruvate dioxygenase (HPPD) (Arabidopsis thaliana) (UniProt P93836)
# T1 sequence: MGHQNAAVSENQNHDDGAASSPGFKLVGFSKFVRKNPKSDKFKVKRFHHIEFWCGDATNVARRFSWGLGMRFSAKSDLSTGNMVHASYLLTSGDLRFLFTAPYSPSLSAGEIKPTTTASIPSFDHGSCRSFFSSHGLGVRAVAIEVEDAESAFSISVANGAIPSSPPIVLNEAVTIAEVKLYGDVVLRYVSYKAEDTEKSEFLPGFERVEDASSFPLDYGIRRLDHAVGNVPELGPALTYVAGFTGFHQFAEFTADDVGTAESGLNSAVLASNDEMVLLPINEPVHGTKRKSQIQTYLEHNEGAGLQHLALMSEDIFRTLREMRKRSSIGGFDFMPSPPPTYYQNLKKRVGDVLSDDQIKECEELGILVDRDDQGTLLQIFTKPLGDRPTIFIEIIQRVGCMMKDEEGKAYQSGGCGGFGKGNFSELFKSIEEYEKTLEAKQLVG
# Assay: filter
# Details: 500 nM HPPD, 10% DMSO
sequence,measurement,value
GGGAGAGGAGGGAGAUAGAUAUCAANNNNNNNNNNNNNNNNNNNNNNNNNNNNNNNNNNNNNNNNNNNNNNNAGUUUGUCCUCACGGUGGAUGG [S115B enriched library (cycle 9)],binding signal (% RNA retained),10
